For the experiment, the target named is BK channel α subunit (hSloα1, human slow poke alpha subunit K+ channel) (human) (UniProt Q12791). In words: native gel or EMSA; native SMA-PAGE (4-16% Tris/glycine gradient gel, 150 V, 1 h, room temperature) of Ni-NTA purified SMALPs from HEK293 membranes, followed by western blot with anti-hsloα, anti-hsloβ or anti-his antibodies; subunits co-expressed in cells and extracted together. On the technique in general: A gel shift assay detects complexes by their altered migration in electrophoresis.

The record followed here is PMC9444072.

Usually stoichiometry N stands for a count of units in the complex or per binding partner.

BK channel α subunit (hSloα1, human slow poke alpha subunit K+ channel), Q12791 1-1236 (natural protein; other documents disagree on this pair), sequence (Q12791 whole entry): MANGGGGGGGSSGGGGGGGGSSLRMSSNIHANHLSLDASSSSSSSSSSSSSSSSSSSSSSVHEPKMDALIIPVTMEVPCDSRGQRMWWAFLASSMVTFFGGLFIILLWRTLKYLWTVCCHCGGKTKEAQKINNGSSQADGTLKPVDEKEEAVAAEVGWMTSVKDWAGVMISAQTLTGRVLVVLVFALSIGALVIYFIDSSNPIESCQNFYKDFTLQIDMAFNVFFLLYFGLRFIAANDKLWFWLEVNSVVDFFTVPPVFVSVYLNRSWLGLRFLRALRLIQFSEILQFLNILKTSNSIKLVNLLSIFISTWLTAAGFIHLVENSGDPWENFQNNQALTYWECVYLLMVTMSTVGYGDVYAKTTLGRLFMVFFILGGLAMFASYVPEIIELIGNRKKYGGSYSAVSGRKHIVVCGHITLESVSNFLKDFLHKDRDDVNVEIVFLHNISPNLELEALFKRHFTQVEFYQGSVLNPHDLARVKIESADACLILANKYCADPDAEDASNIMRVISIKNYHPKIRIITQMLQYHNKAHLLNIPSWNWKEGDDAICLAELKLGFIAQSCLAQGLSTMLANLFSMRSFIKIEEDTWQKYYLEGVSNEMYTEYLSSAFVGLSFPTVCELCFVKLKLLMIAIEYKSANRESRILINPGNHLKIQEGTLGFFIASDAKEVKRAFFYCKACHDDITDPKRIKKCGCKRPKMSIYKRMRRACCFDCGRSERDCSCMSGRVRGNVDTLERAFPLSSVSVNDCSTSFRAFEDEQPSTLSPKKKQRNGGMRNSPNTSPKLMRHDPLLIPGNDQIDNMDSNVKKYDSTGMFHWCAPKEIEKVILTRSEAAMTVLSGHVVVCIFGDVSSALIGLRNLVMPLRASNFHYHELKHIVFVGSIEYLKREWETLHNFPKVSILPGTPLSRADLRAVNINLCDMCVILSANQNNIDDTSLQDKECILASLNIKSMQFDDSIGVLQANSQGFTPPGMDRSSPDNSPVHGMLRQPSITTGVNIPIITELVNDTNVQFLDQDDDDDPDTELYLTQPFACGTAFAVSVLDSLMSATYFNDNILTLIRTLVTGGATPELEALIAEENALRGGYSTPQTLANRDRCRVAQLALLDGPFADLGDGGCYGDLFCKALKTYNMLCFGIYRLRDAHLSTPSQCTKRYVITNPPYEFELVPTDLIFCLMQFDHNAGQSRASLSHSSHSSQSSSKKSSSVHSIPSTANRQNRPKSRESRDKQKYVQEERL

“BK channel α subunit (hSloα1, human slow poke alpha subunit K+ channel), Q12791 1-1236 (natural protein; other documents disagree on this pair)” yielded a stoichiometry N of 4.
